Experimental data: publication PMC5686140, “Structural disorder and induced folding within two cereal, ABA stress and ripening (ASR) proteins” (Scientific Reports, 2017)

Molecular target: the molecule itself
Assay: native MS; native ESI-MS, Synapt G2-Si; proteins buffer-exchanged into 250 mM ammonium acetate, pH 8.0, infused at 15 μM; source temperature 30 °C

B1: alcohol dehydrogenase (enzyme, UniProt P00330 1-348, looked up)
chain: MSIPETQKGVIFYESHGKLEYKDIPVPKPKANELLINVKYSGVCHTDLHAWHGDWPLPVKLPLVGGHEGAGVVVGMGENVKGWKIGDYAGIKWLNGSCMACEYCELGNESNCPHADLSGYTHDGSFQQYATADAVQAAHIPQGTDLAQVAPILCAGITVYKALKSANLMAGHWVAISGAAGGLGSLAVQYAKAMGYRVLGIDGGEGKEELFRSIGGEVFIDFTKEKDIVGAVLKATDGGAHGVINVSVSEAAIEASTRYVRANGTTVLVGMPAGAKCCSDVFNQVVKSISIVGSYVGNRADTREALDFFARGLVKSPIKVVGLSTLPEIYEKMEKGQIVGRYVVDTSK
notes: alcohol dehydrogenase (ADH, a tetrameric protein), control of the native ESI-MS; Species surmised: the tetrameric ADH commonly used as a native MS standard is that of S. cerevisiae; also called ADH
For B1, the “stoichiometry N” value was 4.
